The results in this text go back to the supplement of paper PMC10899765.

What all share (conditions): 20 nM; 72 h
In series [1] the test system is MCF10A. Kind of series: 5+ nucleoli phenotype percent effect, hitpick validation (relative to siNT 0% and siKIF11 100%); higher = more cells with five or more nucleoli. The protocol:
(§1)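 Primary screen hits (microRNA mimics) were re-picked and rescreened for nucleolar number in MCF10A cells (hitpick validation; percent effect relative to the siNT and siNOL11/siKIF11 controls). A secondary screen measured nucleolar rRNA biogenesis inhibition: after 72 h of transfection at 20 nM, cells were labelled 1 h with 1 mM 5-EU and nucleolar 5-EU signal was quantified, normalised to siNT (0%) and siPOLR1A (100%). Means are over n=5 (MCF10A) or n=2 (RPE-1, HeLa) biological replicates.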

Series [2] has as its system MCF10A. Put plainly: 5+ nucleoli phenotype percent effect (relative to siNT 0% and siKIF11 100%); higher = more cells with five or more nucleoli. The protocol:
(§2)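 After 72 h, cells were fixed and stained with Hoechst and anti-fibrillarin, and nucleoli per nucleus were counted with CellProfiler. Values are plate-adjusted percent effect for the one-nucleolus and 5+ nucleoli phenotypes, normalised to siNT (0%) and to the positive controls siNOL11 or siKIF11 (100%), as the mean of biological triplicates. Percent viability is the nuclei count relative to siNT.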

Another series concerns HeLa. Put plainly: nucleolar rRNA biogenesis percent inhibition (5-EU; siNT 0%, siPOLR1A 100%); higher = stronger inhibition of nucleolar rRNA biogenesis. The procedure: as §1
In series [3] the test system is MCF10A. Described as above. The procedure:
as §1

For a further series, the system named is hTERT RPE-1. The description is as above. The procedure:
as §1

In series [4] the test system is MCF10A. Kind of series: one-nucleolus phenotype percent effect, hitpick validation (relative to siNT 0% and siNOL11 100%); higher = more cells with one nucleolus. The procedure: as §1
In series [5] the test system is MCF10A. Put plainly: percent viability (nuclei count relative to siNT); higher = more viable cells. The procedure:
as §2

Series [6] relates to MCF10A. Kind of series: one-nucleolus phenotype percent effect (relative to siNT 0% and siNOL11 100%); higher = more cells with one nucleolus (ribosome biogenesis inhibition). The procedure:
as §2

On to “CUCUUGAGGGAAGCACUUUCUGU [hsa-miR-526b-5p]”, for which the entries for the “5+ nucleoli phenotype percent effect” value in the series on MCF10A [1] and with MCF10A [2] were -6.22% and -54.5%, respectively. The “nucleolar rRNA biogenesis percent inhibition” value was 81.5% with HeLa, 130% with MCF10A [3] and 75.9% with hTERT RPE-1. Further, the “one-nucleolus phenotype percent effect” value came out at 81.9% in the series on MCF10A [4] and 71.3% in the series with MCF10A [6]. This sequence displayed a percent viability in the series on MCF10A [5] of 28.7%.
On to “AAGGAGCUUACAAUCUAGCUGGG [hsa-miR-708-5p]”, for which the “5+ nucleoli phenotype percent effect” value in the series on MCF10A [1] was 1.8%; in the series on MCF10A [2] it was -34.6%. Also, the “nucleolar rRNA biogenesis percent inhibition” value was 48.6% with HeLa, -26.3% in the series with MCF10A [3] and 9.05% in the series with hTERT RPE-1. For the same sequence, the “one-nucleolus phenotype percent effect” value in the series with MCF10A [4] was 187%; in the series on MCF10A [6], 120%. In the series with MCF10A [5], this sequence displayed a percent viability of 27.9%.
For “ACUCGGCGUGGCGUCGGUCGUG [hsa-miR-1307-3p]”, the “5+ nucleoli phenotype percent effect” value in the series on MCF10A [1] was -13.2%; in the series on MCF10A [2], -50.5%. The “nucleolar rRNA biogenesis percent inhibition” value in the series on HeLa was found to be 40.2%; in the series with MCF10A [3], 100%; in the series with hTERT RPE-1, 13.7%. Further, the “one-nucleolus phenotype percent effect” value came to 112% with MCF10A [4] and 66.2% in the series on MCF10A [6]. In the series on MCF10A [5], this sequence came in with a percent viability of 39.9%.
As to GUUCUCCCAACGUAAGCCCAGC [hsa-miR-629-3p], the “5+ nucleoli phenotype percent effect” value is 96.3% in the series with MCF10A [1] and 238% in the series with MCF10A [2]. Further, the entries for the “nucleolar rRNA biogenesis percent inhibition” value in the series on HeLa, in the series on MCF10A [3] and in the series on hTERT RPE-1 were 55.5%, 82.1% and 70.8%, respectively. Also, the results for the “one-nucleolus phenotype percent effect” value with MCF10A [4] and with MCF10A [6] were -55.4% and -34.6%, respectively. For the same sequence, the percent viability in the series with MCF10A [5] turned out to be 38.5%.
In the case of UGGUUCUAGACUUGCCAACUA [hsa-miR-182-3p], the “5+ nucleoli phenotype percent effect” value in the series with MCF10A [1] was -12.4%; with MCF10A [2], -35.8%. The “nucleolar rRNA biogenesis percent inhibition” value in the series on HeLa turned out to be 9.57%; with MCF10A [3], 64.6%; in the series on hTERT RPE-1 it was 173%. The entries for the “one-nucleolus phenotype percent effect” value in the series with MCF10A [4] and with MCF10A [6] were 165% and 97.2%, respectively. Besides, the percent viability in the series with MCF10A [5] stood at 17.5%.
As for UAAGGCACGCGGUGAAUGCC [hsa-miR-124-3p], the “5+ nucleoli phenotype percent effect” value with MCF10A [1] was 18.1%; in the series on MCF10A [2], -14.4%. Further, the “nucleolar rRNA biogenesis percent inhibition” value with HeLa amounted to 91.7%; in the series on MCF10A [3], 61.9%; in the series with hTERT RPE-1, 28.2%. Moreover, the “one-nucleolus phenotype percent effect” value is 139% in the series with MCF10A [4] and 70.4% in the series with MCF10A [6]. The sequence also showed a percent viability in the series with MCF10A [5] of 39.1%.
GGCCAGCCACCAGGAGGGCUG [hsa-miR-3194-5p]: the “5+ nucleoli phenotype percent effect” value in the series on MCF10A [1] was 4.28%; in the series with MCF10A [2], -36.9%. The “nucleolar rRNA biogenesis percent inhibition” value in the series on HeLa is -11.3%; in the series on MCF10A [3], 22.9%; in the series on hTERT RPE-1, 50.9%. The “one-nucleolus phenotype percent effect” value in the series with MCF10A [4] was found to be 199%; with MCF10A [6], 81.9%. The percent viability with MCF10A [5] came to 18.6%.
Turning to CCCCACCUCCUCUCUCCUCAG [hsa-miR-1224-3p], the “5+ nucleoli phenotype percent effect” value is 28.1% in the series on MCF10A [1] and 97.2% in the series with MCF10A [2]. For the same sequence, the “nucleolar rRNA biogenesis percent inhibition” value with MCF10A [3] was 22.4%. In addition, the entries for the “one-nucleolus phenotype percent effect” value in the series with MCF10A [4] and in the series on MCF10A [6] were -32.5% and -25.7%, respectively. In the series on MCF10A [5], this sequence showed a percent viability of 86.7%.
Take “AGCUUUUGGGAAUUCAGGUAGU [hsa-miR-3140-3p]”: the “5+ nucleoli phenotype percent effect” value in the series on MCF10A [1] was -14.2%; in the series with MCF10A [2], -25.9%. The “nucleolar rRNA biogenesis percent inhibition” value in the series on HeLa was 76.4%; in the series with MCF10A [3] it was 6.44%; with hTERT RPE-1 it was 33%. Also, the entries for the “one-nucleolus phenotype percent effect” value in the series on MCF10A [4] and in the series with MCF10A [6] were 159% and 91.3%, respectively. The sequence further gave a percent viability in the series on MCF10A [5] of 17.7%.
With CGCGCCGGGCCCGGGUU [hsa-miR-3195], the “5+ nucleoli phenotype percent effect” value was -15.6% in the series on MCF10A [1] and -31.1% with MCF10A [2]. Besides, the “nucleolar rRNA biogenesis percent inhibition” value in the series with MCF10A [3] is 51.6%. Moreover, the “one-nucleolus phenotype percent effect” value turned out to be 196% with MCF10A [4] and 82.1% in the series on MCF10A [6]. This sequence yielded a percent viability in the series with MCF10A [5] of 19.4%.
Take UUGCACUUGUCUCAGUGA [hsa-miR-4325]: the “5+ nucleoli phenotype percent effect” value in the series on MCF10A [1] was 3.45%; in the series with MCF10A [2], -30.4%. The “nucleolar rRNA biogenesis percent inhibition” value in the series on MCF10A [3] was 104%. Further, the “one-nucleolus phenotype percent effect” value in the series on MCF10A [4] was 84.2%; in the series on MCF10A [6] it was 70.8%. Besides, in the series with MCF10A [5], the percent viability stood at 15.7%.
In the case of “AAAGGAGGAAAUAGGCAGGCCA [hsa-miR-3173-3p]”, the entries for the “5+ nucleoli phenotype percent effect” value in the series on MCF10A [1] and in the series with MCF10A [2] were -0.0263% and -35.7%, respectively. Further, the figures for the “nucleolar rRNA biogenesis percent inhibition” value in the series on HeLa, in the series on MCF10A [3] and in the series on hTERT RPE-1 were 25.3%, 86.5% and 159%, respectively. Further, the “one-nucleolus phenotype percent effect” value with MCF10A [4] was determined as 84.3%; in the series on MCF10A [6], 67.7%. The same sequence yielded a percent viability with MCF10A [5] of 17.5%.
With GGCGACAAAACGAGACCCUGUC [hsa-miR-1273c], the “5+ nucleoli phenotype percent effect” value with MCF10A [1] was -8.2%; in the series on MCF10A [2] it was -32.6%. In addition, the “nucleolar rRNA biogenesis percent inhibition” value with MCF10A [3] stood at 31.6%. Also, the results for the “one-nucleolus phenotype percent effect” value in the series on MCF10A [4] and in the series on MCF10A [6] were 205% and 106%, respectively. The percent viability with MCF10A [5] came out at 17.4%.
As for GUGUGUGGAAAUGCUUCUGC [hsa-miR-147a], the “5+ nucleoli phenotype percent effect” value in the series with MCF10A [1] is 9.08%; in the series with MCF10A [2], -15.3%. The “nucleolar rRNA biogenesis percent inhibition” value in the series on MCF10A [3] was determined as 61.8%. Further, the “one-nucleolus phenotype percent effect” value stood at 103% in the series on MCF10A [4] and 95.9% with MCF10A [6]. This sequence also registered a percent viability in the series with MCF10A [5] of 18.3%.
Regarding UCUCUGGGCCUGUGUCUUAGGC [hsa-miR-330-5p], the “5+ nucleoli phenotype percent effect” value in the series on MCF10A [1] was 1.29%; with MCF10A [2] it was -22.3%. Moreover, the “nucleolar rRNA biogenesis percent inhibition” value came to 66.1% in the series with HeLa, 65.2% with MCF10A [3] and 109% in the series on hTERT RPE-1. For the same sequence, the results for the “one-nucleolus phenotype percent effect” value in the series with MCF10A [4] and in the series with MCF10A [6] were 99.9% and 67.1%, respectively. Also, the percent viability with MCF10A [5] amounted to 17.8%.
As for AAAAGGCAUUGUGGUUUUUG [hsa-miR-548an], the “5+ nucleoli phenotype percent effect” value was -8.86% with MCF10A [1] and -52.6% in the series on MCF10A [2]. Also, the “nucleolar rRNA biogenesis percent inhibition” value in the series with MCF10A [3] stood at 65.7%. Moreover, the entries for the “one-nucleolus phenotype percent effect” value in the series on MCF10A [4] and in the series on MCF10A [6] were 194% and 137%, respectively. Further, in the series on MCF10A [5], the percent viability amounted to 11.6%.
Consider UCAUAGCCCUGUACAAUGCUGCU [hsa-miR-103b], for which the “5+ nucleoli phenotype percent effect” value was -15% in the series on MCF10A [1] and -32.5% in the series on MCF10A [2]. In addition, the “nucleolar rRNA biogenesis percent inhibition” value with MCF10A [3] was 47.6%. Moreover, the “one-nucleolus phenotype percent effect” value stood at 144% in the series with MCF10A [4] and 72.9% with MCF10A [6]. Besides, the percent viability with MCF10A [5] worked out at 46.2%.
Consider CAGCCUCUGCCCUUGGCCUCC [hsa-miR-6877-3p], for which the “5+ nucleoli phenotype percent effect” value with MCF10A [1] was -16.2%; in the series on MCF10A [2], -44.7%. In addition, the “nucleolar rRNA biogenesis percent inhibition” value in the series with MCF10A [3] is 114%. The “one-nucleolus phenotype percent effect” value was found to be 153% in the series with MCF10A [4] and 69.1% in the series on MCF10A [6]. Also, in the series with MCF10A [5], the percent viability came to 28.9%.
Take “UUUGCAGUAACAGGUGUGAGCA [hsa-miR-6516-5p]”: the “5+ nucleoli phenotype percent effect” value in the series with MCF10A [1] is -19.1%; in the series on MCF10A [2], -40.6%. Besides, in the series with MCF10A [3], the “nucleolar rRNA biogenesis percent inhibition” value worked out at 48.6%. For the same sequence, the “one-nucleolus phenotype percent effect” value with MCF10A [4] is 142%; in the series on MCF10A [6], 80.3%. In the series with MCF10A [5], this sequence gave a percent viability of 23.8%.
For the sequence AGGUAUUGCCACCCUUUCUAGU [hsa-miR-5681b], the entries for the “5+ nucleoli phenotype percent effect” value in the series with MCF10A [1] and with MCF10A [2] were -3.11% and -35.5%, respectively. The “nucleolar rRNA biogenesis percent inhibition” value in the series with MCF10A [3] was found to be 66%. In addition, the results for the “one-nucleolus phenotype percent effect” value in the series with MCF10A [4] and in the series with MCF10A [6] were 133% and 90.7%, respectively. For the same sequence, the percent viability with MCF10A [5] amounted to 12.7%.
